Series [1] concerns the molecule itself. Nature of the series: crystal structure; BiP^T229A-V461F (28-549) at 150 µM with equimolar FICD^L258D-H363A and 175 µM ATP (FICD excluded from the crystals); apo: 20% PEG3350, 0.1 M Bis-Tris Propane pH 7.5, 0.2 M Na3Citrate; ADP-bound: 20% PEG3350, 0.2 M K3Citrate.
Series [2] has as its target T1, BiP (Chinese hamster, wild type, UK173) (Chinese hamster, UniProt G3I8R9 19-654).
T1 construct: BiP (Grp78), the ER Hsp70 chaperone, Chinese hamster (Cricetulus griseus), wild type; called full-length BiP in the results; also called Grp78; mammalian BiP; source: E. coli M15, purified (Ni-NTA)
Nature of the series: BLI; as a1, association with Mg + ATP; dissociation with Mg + Ca + ATP ([MgCl2]/[CaCl2]=3). The conditions noted are these: both partners purified. (In general: Biolayer interferometry detects binding as a change in optical thickness at a sensor tip.)

Series [3] deals with T1, BiP (Chinese hamster, wild type, UK173). Description: BLI; streptavidin sensor with biotinylated ERdj6 J-domain (J) and biotinylated P15 co-immobilised; association: 5 µM BiP, MgCl2 + ATP; dissociation in protein-free solution with Mg + ATP; 28°C; 50 mM HEPES-KOH pH 7.4, 100 mM KCl, 0.2 mM TCEP, 0.05% Triton X-100; one-phase decay fit. The conditions noted are these: both partners purified.

For series [4], the target named is T2, BiP from Drosophila melanogaster (UK2354) (Drosophila melanogaster, UniProt P29844 19-656).
T2 construct: BiP homologue of Drosophila melanogaster; the ER signal peptide is probably absent from the bacterial construct; also called dBiP; Drosophila BiP; source: E. coli BL21 T7 Express lysY/Iq, purified (Ni-NTA, Ulp1 cleavage, anion exchange); not shown: His6-Smt3, N-terminal, cleaved
Description: BLI; streptavidin sensor with biotinylated ERdj6 J-domain (J) and biotinylated P15 co-immobilised; association: 5 µM Hsp70, 3 mM MgCl2, 1.5 mM ATP; dissociation in protein-free solution with Mg + ATP + ADP ([ATP]/[ADP]=2); 28°C; 50 mM HEPES-KOH pH 7.4, 100 mM KCl, 0.2 mM TCEP, 0.05% Triton X-100; one-phase decay fit. The note with it: both partners purified.

The target of series [5] is T3, human cytosolic Hsp70 (HSPA1A; UK2510; natural variant E110D) (human, UniProt P0DMV8 1-641, E110D).
T3 construct: human cytosolic Hsp70 (HSPA1A), natural variant E110D; source: E. coli BL21 T7 Express lysY/Iq, purified (Ni-NTA, Ulp1 cleavage, anion exchange); not shown: His6-Smt3, N-terminal, cleaved
Described as above. The conditions noted are these: both partners purified.

Series [6] deals with T4, human Hsc70 (HSPA8; UK2511) (human, UniProt P11142 1-646).
T4 construct: human cytosolic Hsc70 (HSPA8); source: E. coli BL21 T7 Express lysY/Iq, purified (Ni-NTA, Ulp1 cleavage, anion exchange); not shown: His6-Smt3, N-terminal, cleaved
The description is as above. The note with it: both partners purified.

Series [7] deals with T1, BiP (Chinese hamster, wild type, UK173). Described as above. The conditions noted are these: both partners purified.
Series [8] shares this target. Nature of the series: BLI; as a1, association with Mg + ATP; first dissociation step with Mg + ADP, then second dissociation step (the one fitted) with Mg + ATP. The note with it: both partners purified.
Series [9] has the same target. Description: BLI; as a1, association with Mg + ATP; dissociation with Mg + ADP. The note with it: both partners purified.
Series [10] shares this target. Description: BLI; as a1, association with Mg + ATP; first dissociation step with Ca + ADP, then second dissociation step (the one fitted) with Mg + ATP. The conditions noted are these: both partners purified.
For series [11] the target is unchanged. Description: BLI; as a1, but association with Mg + Ca + ATP ([MgCl2]/[CaCl2]=3); dissociation with Mg + ATP. The note with it: both partners purified.
For series [12] the target is unchanged. Nature of the series: BLI; as a7, but dissociation with Mg + Ca + ATP + ADP ([MgCl2]/[CaCl2]=3; [ATP]/[ADP]=2). The note with it: both partners purified.
The target is the same in series [13]. Nature of the series: BLI; streptavidin sensor with biotinylated ERdj6 J-domain (J) and biotinylated P15 co-immobilised; association: 5 µM Hsp70, 3 mM MgCl2, 1.5 mM ATP; dissociation in protein-free solution with Mg + ATP + ADP ([ATP]/[ADP]=2); 28°C; 50 mM HEPES-KOH pH 7.4, 100 mM KCl, 0.2 mM TCEP, 0.05% Triton X-100; one-phase decay fit. The note with it: both partners purified. The source holds these as a separate data set.

Series [14] shares this target. Described as above. The note with it: both partners purified. The source holds these as a separate data set.
Series [15] shares this target. Nature of the series: BLI; as a8, dissociation with Mg + Ca + ATP + ADP and Grp170 present in the dissociation step. The conditions noted are these: both partners purified.
The target is the same in series [16]. Nature of the series: BLI; as a1, association with Mg + ATP; dissociation (step 1) with Ca + ADP. The note with it: both partners purified.
Series [17] has as its target T5, DnaK from Escherichia coli (UK2243) (Escherichia coli, UniProt P0A6Y8 1-638).
T5 construct: DnaK, the Hsp70 of Escherichia coli; also called bacterial DnaK; source: E. coli BL21 T7 Express lysY/Iq, purified (Ni-NTA, Ulp1 cleavage, anion exchange, second Ni-NTA); not shown: His6-Smt3, N-terminal, cleaved
Nature of the series: BLI; as a14, but dissociation with Mg + Ca + ATP + ADP. The note with it: both partners purified.

Series [18] concerns the target T1, BiP (Chinese hamster, wild type, UK173). Description: BLI; as a7, but dissociation with Mg + Ca + ATP + ADP ([MgCl2]/[CaCl2]=3; [ATP]/[ADP]=2). The conditions noted are these: both partners purified. The source holds these as a separate data set.
Series [19] has the same target. Description: BLI; as a7, dissociation with Mg + ATP + ADP and Grp170 present in the dissociation step. The note with it: both partners purified.
The target is the same in series [20]. Description: BLI; as a1, but the non-functional H422Q J-domain (J^QPD) co-immobilised with P15; association with Mg + ATP; dissociation with Mg + ATP. The note with it: both partners purified.
In series [21] the target is T5, DnaK from Escherichia coli (UK2243). Nature of the series: BLI; streptavidin sensor with biotinylated J-domain of E. coli DnaJ (residues 1-72) and biotinylated P15 co-immobilised; association: 5 µM DnaK, 3 mM MgCl2, 1.5 mM ATP; dissociation in protein-free solution with Mg + ATP + ADP ([ATP]/[ADP]=2); 28°C; 50 mM HEPES-KOH pH 7.4, 100 mM KCl, 0.2 mM TCEP, 0.05% Triton X-100; one-phase decay fit. The note with it: both partners purified.

For series [22], the target named is T2, BiP from Drosophila melanogaster …. Nature of the series: BLI; as a7, but dissociation with Mg + Ca + ATP + ADP ([MgCl2]/[CaCl2]=3; [ATP]/[ADP]=2). The conditions noted are these: both partners purified.
Series [23] addresses T3, human cytosolic Hsp70 (HSPA1A; UK2510; …). The description is as above. The note with it: both partners purified.
The target in series [24] is T4, human Hsc70 (HSPA8; UK2511). The series is described as above. The note with it: both partners purified.
The target of series [25] is T1, BiP (Chinese hamster, wild type, UK173). The description is as above. The conditions noted are these: both partners purified. This is another data set of the same source.
Series [26] shares this target. Nature of the series: BLI; as a1, association with Mg + ATP; dissociation with Ca + ATP (Ca2+ the only divalent cation). The conditions noted are these: both partners purified.
For series [27] the target is unchanged. Nature of the series: BLI; as a1, but the non-functional H422Q J-domain (J^QPD) co-immobilised with P15; association with Mg + ATP; dissociation with Mg + ATP. The note with it: both partners purified. This is another data set of the same source.

“And” between values parts separate entries of the source, which are not always exact repeats. Equal entries are not always repeated. Ends that are not written are not given here. * marks the point of attachment. Biotin = O=C1N[C@H]2[C@H](CS[C@H]2CCCCC(=O)*)N1

The record followed here is publication PMC7758071, “Calcium depletion challenges endoplasmic reticulum proteostasis by destabilising BiP-substrate complexes” (eLife, 2020).

T1 sequence (G3I8R9 19-654): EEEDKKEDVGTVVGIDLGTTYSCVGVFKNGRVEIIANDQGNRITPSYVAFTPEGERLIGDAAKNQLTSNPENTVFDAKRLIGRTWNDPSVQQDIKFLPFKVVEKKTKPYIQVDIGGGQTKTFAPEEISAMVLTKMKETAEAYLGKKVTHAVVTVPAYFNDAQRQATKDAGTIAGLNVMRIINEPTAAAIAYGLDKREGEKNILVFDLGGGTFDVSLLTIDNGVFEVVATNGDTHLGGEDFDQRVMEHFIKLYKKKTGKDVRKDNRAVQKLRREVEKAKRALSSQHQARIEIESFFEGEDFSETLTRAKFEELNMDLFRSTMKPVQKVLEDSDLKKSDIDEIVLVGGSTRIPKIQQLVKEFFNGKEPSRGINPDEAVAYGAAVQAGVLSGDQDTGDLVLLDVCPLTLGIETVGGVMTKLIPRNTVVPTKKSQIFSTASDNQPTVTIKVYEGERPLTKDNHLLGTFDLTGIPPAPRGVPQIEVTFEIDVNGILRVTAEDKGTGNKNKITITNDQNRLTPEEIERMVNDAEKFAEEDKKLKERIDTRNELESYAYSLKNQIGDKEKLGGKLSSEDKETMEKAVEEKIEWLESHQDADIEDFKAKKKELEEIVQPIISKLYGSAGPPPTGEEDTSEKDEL
T4 sequence (P11142 whole entry): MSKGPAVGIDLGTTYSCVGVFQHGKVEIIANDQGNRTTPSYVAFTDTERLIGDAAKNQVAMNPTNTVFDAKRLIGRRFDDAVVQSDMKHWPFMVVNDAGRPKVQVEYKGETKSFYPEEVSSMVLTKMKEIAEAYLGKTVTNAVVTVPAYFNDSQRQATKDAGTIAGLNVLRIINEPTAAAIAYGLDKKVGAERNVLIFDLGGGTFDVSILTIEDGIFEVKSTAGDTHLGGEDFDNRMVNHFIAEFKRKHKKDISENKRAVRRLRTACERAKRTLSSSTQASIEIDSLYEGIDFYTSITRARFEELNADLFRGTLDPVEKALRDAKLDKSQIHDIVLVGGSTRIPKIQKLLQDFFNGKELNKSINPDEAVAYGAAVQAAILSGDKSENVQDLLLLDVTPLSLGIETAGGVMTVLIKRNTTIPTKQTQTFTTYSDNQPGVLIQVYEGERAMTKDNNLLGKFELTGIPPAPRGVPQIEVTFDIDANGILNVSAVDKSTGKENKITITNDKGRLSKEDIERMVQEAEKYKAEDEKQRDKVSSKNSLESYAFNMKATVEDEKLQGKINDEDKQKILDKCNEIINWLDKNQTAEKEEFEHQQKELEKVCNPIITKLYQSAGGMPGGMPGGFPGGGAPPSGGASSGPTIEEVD
T5 sequence (P0A6Y8 whole entry): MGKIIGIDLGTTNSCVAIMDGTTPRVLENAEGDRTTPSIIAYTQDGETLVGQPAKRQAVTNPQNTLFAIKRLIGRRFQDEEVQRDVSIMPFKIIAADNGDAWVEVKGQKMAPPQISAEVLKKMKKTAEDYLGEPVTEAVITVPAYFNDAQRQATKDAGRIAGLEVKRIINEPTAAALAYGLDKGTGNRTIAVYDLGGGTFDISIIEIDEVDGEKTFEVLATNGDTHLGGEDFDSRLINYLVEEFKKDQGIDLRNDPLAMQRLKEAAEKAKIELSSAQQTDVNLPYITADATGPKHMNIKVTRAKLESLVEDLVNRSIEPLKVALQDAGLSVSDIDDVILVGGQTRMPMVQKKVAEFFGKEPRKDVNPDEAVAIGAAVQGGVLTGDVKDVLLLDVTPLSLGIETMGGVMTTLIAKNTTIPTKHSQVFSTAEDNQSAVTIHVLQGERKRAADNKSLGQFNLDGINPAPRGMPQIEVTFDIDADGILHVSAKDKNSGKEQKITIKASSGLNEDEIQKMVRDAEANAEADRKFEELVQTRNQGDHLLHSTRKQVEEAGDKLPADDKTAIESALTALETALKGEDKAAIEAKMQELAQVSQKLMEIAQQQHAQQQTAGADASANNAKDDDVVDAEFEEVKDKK
T2 sequence (P29844 19-656): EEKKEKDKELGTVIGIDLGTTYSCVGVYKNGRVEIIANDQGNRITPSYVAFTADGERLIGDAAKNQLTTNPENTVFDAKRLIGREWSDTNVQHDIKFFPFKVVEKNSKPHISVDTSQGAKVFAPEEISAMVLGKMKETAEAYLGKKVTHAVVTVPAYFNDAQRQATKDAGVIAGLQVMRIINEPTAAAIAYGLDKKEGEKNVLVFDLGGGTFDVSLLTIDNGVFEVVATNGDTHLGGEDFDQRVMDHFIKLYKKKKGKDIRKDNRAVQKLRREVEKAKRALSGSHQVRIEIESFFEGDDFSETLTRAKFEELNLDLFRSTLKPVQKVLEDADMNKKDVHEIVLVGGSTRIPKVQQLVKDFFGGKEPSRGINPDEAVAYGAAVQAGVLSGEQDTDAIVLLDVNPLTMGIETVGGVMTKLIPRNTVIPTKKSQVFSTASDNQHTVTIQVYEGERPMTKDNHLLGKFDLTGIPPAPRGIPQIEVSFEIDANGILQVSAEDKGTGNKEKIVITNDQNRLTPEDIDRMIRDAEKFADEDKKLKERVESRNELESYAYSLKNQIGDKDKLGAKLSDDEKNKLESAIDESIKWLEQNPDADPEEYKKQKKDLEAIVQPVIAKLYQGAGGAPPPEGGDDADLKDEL
T3 sequence (P0DMV8 whole entry E110D): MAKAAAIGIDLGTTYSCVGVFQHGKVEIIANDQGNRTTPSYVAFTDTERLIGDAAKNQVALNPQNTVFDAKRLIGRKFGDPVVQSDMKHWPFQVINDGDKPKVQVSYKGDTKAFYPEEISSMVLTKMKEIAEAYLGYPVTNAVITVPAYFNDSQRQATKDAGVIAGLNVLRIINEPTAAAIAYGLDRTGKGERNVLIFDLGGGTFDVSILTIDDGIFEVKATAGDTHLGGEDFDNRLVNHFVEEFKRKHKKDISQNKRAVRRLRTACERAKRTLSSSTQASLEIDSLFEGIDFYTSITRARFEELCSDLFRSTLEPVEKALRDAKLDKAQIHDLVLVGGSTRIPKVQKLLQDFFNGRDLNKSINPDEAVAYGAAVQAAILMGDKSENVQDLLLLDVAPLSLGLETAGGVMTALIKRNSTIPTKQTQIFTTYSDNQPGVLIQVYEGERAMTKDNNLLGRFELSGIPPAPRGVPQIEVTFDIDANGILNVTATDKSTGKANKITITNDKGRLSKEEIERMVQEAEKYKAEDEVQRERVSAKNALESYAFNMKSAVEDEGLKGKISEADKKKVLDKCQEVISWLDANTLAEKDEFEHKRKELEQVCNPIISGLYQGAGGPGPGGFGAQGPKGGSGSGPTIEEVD

B1: Chinese hamster BiP^T229A-V461F (residues 28–549), lid-truncated (domain or fragment)
chain: not shown
notes: also called apo BiP oligomer; ADP BiP oligomer; source: E. coli M15, purified (as in Perera et al., 2019; anion exchange, gel filtration)
Take B1: the binding result in series [1] is reported as “binds”.

B2: P15 BiP substrate peptide (peptide)
peptide: ALLLSAPRRGAGKK(Biotin)
notes: substrate peptide P15 (Misselwitz et al., 1998); Held on streptavidin BLI sensors together with a biotinylated J-domain (ERdj6 residues 390-455, wild type or H422Q; for DnaK the J-domain of DnaJ, residues 1-72); source: synthetic peptide (custom synthesis, GenScript)
B2: the off-rate constant (koff) in series [2] was 0.00575 s⁻¹ and 0.00678 s⁻¹ and 0.00573 s⁻¹; in [2] (mean) it was 0.00609 s⁻¹; in [3], 0.00583 s⁻¹ and 0.00632 s⁻¹ and 0.00607 s⁻¹; in [3] (mean), 0.00607 s⁻¹; in series [4], 0.00811 s⁻¹ and 0.00832 s⁻¹ and 0.00795 s⁻¹ and 0.00806 s⁻¹; in series [5], 0.00203 s⁻¹ and 0.00225 s⁻¹ and 0.00198 s⁻¹ and 0.00185 s⁻¹. In addition, the dissociation rate constant (koff) in series [6] is 0.00395 s⁻¹ and 0.00411 s⁻¹ and 0.00394 s⁻¹ and 0.0038 s⁻¹; in series [7], 0.00441 s⁻¹ and 0.00438 s⁻¹ and 0.00434 s⁻¹ and 0.00453 s⁻¹; in series [8], 0.00684 s⁻¹ and 0.00682 s⁻¹ and 0.00672 s⁻¹; in [8] (mean), 0.00679 s⁻¹; in [9], 0.00145 s⁻¹ (2×) and 0.00148 s⁻¹; in [9] (mean), 0.00146 s⁻¹. Further, the off-rate (koff) in [10] was 0.00294 s⁻¹ and 0.00337 s⁻¹ and 0.00333 s⁻¹; in series [10] (mean), 0.00321 s⁻¹; in [11] it was 0.00546 s⁻¹ and 0.00506 s⁻¹ and 0.00591 s⁻¹; in series [11] (mean), 0.00547 s⁻¹; in series [12], 0.00239 s⁻¹ and 0.00247 s⁻¹ and 0.00254 s⁻¹; in series [12] (mean) it was 0.00247 s⁻¹. Moreover, the koff in series [13] is 0.00421 s⁻¹ and 0.00438 s⁻¹ and 0.00441 s⁻¹; in [13] (mean), 0.00433 s⁻¹; in [14] it was 0.00434 s⁻¹ (2×) and 0.00424 s⁻¹; in series [14] (mean) it was 0.00431 s⁻¹; in [15] it was 0.00682 s⁻¹ and 0.00595 s⁻¹ and 0.00602 s⁻¹; in [15] (mean), 0.00626 s⁻¹. Also, the dissociation rate constant (koff) in series [16] is 0.00121 s⁻¹ and 0.0012 s⁻¹ and 0.00122 s⁻¹; in series [16] (mean) it was 0.00121 s⁻¹; in series [17], 0.00636 s⁻¹ and 0.00686 s⁻¹ and 0.00525 s⁻¹ and 0.00615 s⁻¹; in series [18], 0.0025 s⁻¹ and 0.0024 s⁻¹ and 0.00243 s⁻¹; in series [18] (mean), 0.00244 s⁻¹; in series [19] it was 0.0103 s⁻¹ and 0.00955 s⁻¹ and 0.00937 s⁻¹. For the same molecule, the koff in [19] (mean) is 0.00974 s⁻¹; in [20] it was 0.00203 s⁻¹ and 0.000861 s⁻¹ and 0.000902 s⁻¹; in series [20] (mean), 0.00127 s⁻¹; in series [21], 0.00693 s⁻¹ and 0.00776 s⁻¹ and 0.00549 s⁻¹ and 0.00673 s⁻¹; in series [22] it was 0.00384 s⁻¹ and 0.00414 s⁻¹ and 0.00359 s⁻¹ and 0.0038 s⁻¹; in series [23] it was 0.00171 s⁻¹ and 0.00178 s⁻¹ and 0.00164 s⁻¹. Besides, the dissociation rate constant (koff) in series [24] is 0.00336 s⁻¹ and 0.00333 s⁻¹ and 0.00344 s⁻¹ and 0.00318 s⁻¹; in [25] it was 0.0025 s⁻¹ and 0.00254 s⁻¹ and 0.00241 s⁻¹ and 0.00255 s⁻¹; in series [26], 0.0074 s⁻¹ and 0.00639 s⁻¹ and 0.00848 s⁻¹; in series [26] (mean) it was 0.00742 s⁻¹; in series [27], 0.00101 s⁻¹ and 0.000958 s⁻¹ and 0.00117 s⁻¹; in series [27] (mean), 0.00105 s⁻¹.

Usually koff stands for the first-order rate constant of dissociation.
